The values below come from paper PMC4975667.

For this experiment, the target named is Human full-length BAX (1–192) wild type, recombinant (human) (UniProt Q07812).

In general, Kd refers to the free concentration of one partner at which half of the binding sites on the other are occupied at equilibrium, for simple one-to-one binding. As to “Human full-length BAX (1–192) wild type, recombinant (from UniProt Q07812 1-192) (natural protein)”, the Kd was 32 µM.
